Laboratory results as given in US20260234655A1, “Nuclear Targeted DNA Delivery and Compositions for Use in Practicing the Same” (Seawolf Therapeutics, Inc., priority 2022, published 2026).

Experiments:
[1] = system: growth-arrested HepG2 cells; assay: Arrayed DTS screen in growth-arrested HepG2 cells; GFP intensity by live-cell imaging; format: cell-based; conditions: 24 h post-transfection
Excerpt: DNA construct design. Each DTS was constructed in pentameric repeat using a 15 bp spacer between each TFBS. The DTS was appended just 5′ to the promoter, effectively in a putative enhancer region. Various promoters were employed in these constructs, including CBh (a variant of the CAG promoter) and TTR. Several reporter genes were employed in these constructs, including enhanced Green Fluorescent Protein (eGFP). The polyadenylation (polyA) signal is a BGH-PolyA sequence. For pooled screening, unique molecular identifiers (UMIs; also known as barcodes) were used to distinguish between DNA constructs in a pool, and the UMIs were appended to the 3′UTR immediately downstream of the stop codon of eGFP, just preceding the BGH-PolyA sequence.
Cell culture. HepG2 cells were plated into a 384-well plate and grown for 48 hours to achieve confluency. Cell media was removed and replaced with culture media supplemented with Aphidicolin (1 uM) using EL406 automated plate washer and dispenser, then cells were transfected with DTS containing 17.5 ng plasmids using Lipofectamine 3000 without supplement. Expression of GFP was monitored using a Biotek Cytation 5 cell imaging reader over 24 hours to evaluate DTS activity. Total GFP per well was calculated and averaged over 4 well replicates.
pDNAs containing various DTSs (Table 12) were transfected individually into growth-arrested HepG2 cells. Cell growth was inhibited to prevent dissolution of the nuclear envelope. GFP expression was quantified over a period of 24 h post-transfection by measuring GFP intensity using quantitative live-cell imaging. Statistical analysis and hierarchical clustering methods were used to easily differentiate strong DTSs from weak DTSs in a heatmap (FIG. 5A). […] DTS.203: CREB1, PPARA, ONECUT1, HNF4A, PPARA. DTS.233: HNF1A, NR113, PPARA, HNF1A, PPARA. DTS.276: FOXA1, HNF4A, HNF1A, HNF4A, HNF1A.
For the arrayed screen, pDNAs containing various DTSs were transfected individually into growth-arrested HepG2 cells. For the pooled screen, pDNAs containing various DTSs were pooled together and transfected as a pool into growth-arrested HepG2 cells. Cell growth was inhibited to prevent dissolution of the nuclear envelope, which improves the accuracy of measuring DTS activity related to nuclear translocation. For the arrayed screen, GFP protein expression was quantified 24 h post-transfection by measuring GFP intensity using quantitative live-cell imaging. For the pooled screen, mRNA abundance for each DTS variant was determined using RNA-seq by deconvoluting the read counts for each UMI. A strong correlation between protein expression in the arrayed screen and mRNA expression in the pooled screen was observed (FIG. 6). […] Pooled screening can thus be used to quickly and reliably identify strong DTSs.

mouse liver = assay: Pooled DTS pDNA-LNP i.v. in mice; mRNA abundance in liver by RNA-seq; format: in vivo; conditions: 1 d post-dose, pDNA-LNP 0.66 mg/kg i.v.
Procedure: LNP formulation. LNPs encapsulating nucleic acid payloads were prepared by mixing an organic solution of lipids with an aqueous solution of nucleic acid (e.g., DNA only, mRNA only, or DNA/mRNA mixtures) as described in Prud′homme et al. (J Pharm Sci 2018). Briefly, the lipidic excipients mixture (ionizable lipid, helper lipid, cholesterol, PEG-lipid and potentially other targeting moieties) is dissolved in an organic solvent. An aqueous solution of the nucleic acid is prepared in a low pH buffer of range pH 3.0-4.0. The lipid mixture is then mixed with the aqueous nucleic acid solution at a flow ratio of 1:3 (V/V) using a commercially available mixer device. […] Particle size is determined by dynamic light scattering (Horiba nanoPartica SZ-100). Encapsulation efficiency is calculated by using Quant-it RiboGreen assay kit.
Quantification of mRNA abundance from pooled DTS screens. […] The PCR amplified cDNA was then library prepped (NEBNext library prep for Illumina) and sequenced on an Illumina Miseq (2×150 bp reads). Counts for each UMI were translated into the corresponding DTS using the UMI/Barcode registry and changes in abundance of each DTS were statistically analyzed using a custom R script. The log 2 fold change is calculated by comparing the RNA level in the pool vs. its expected abundance, which is derived from the abundance in the corresponding input DNA pool. […]

B1: NFKB: benchmark DTS with NF-κB binding sites in pentameric repeat (SEQ ID NO: 140) (nucleic acid)
DNA: GGGACTTTCCAGATTACTACTGATAGGGACTTTCCAGATTACTACTGATAGGGACTTTCCAGATTACTACTGATAGGGACTTTCCAGATTACTACTGATAGGGACTTTCC
modifications: DNA nuclear targeting sequence within DNA cargo construct, further chemistry not given here
**Q.** How did the “GFP intensity / gene expression in arrayed screen compared to Spacer negative control” value [1] turn out when B1 was run?
**A.** Its value is “robust increases”.

**Q.** And the “mRNA abundance in mouse liver compared to Spacer negative control” value (mouse liver)?
**A.** The value was “largest and most statistically significant increase”.
